Data reported in article PMC6351178.

Target: PitA (E. coli (endogenous in MG1655)) (UniProt P0AFJ7)
Experiment: cross-linking

UniProt P0AFJ7, sequence (P0AFJ7 whole entry): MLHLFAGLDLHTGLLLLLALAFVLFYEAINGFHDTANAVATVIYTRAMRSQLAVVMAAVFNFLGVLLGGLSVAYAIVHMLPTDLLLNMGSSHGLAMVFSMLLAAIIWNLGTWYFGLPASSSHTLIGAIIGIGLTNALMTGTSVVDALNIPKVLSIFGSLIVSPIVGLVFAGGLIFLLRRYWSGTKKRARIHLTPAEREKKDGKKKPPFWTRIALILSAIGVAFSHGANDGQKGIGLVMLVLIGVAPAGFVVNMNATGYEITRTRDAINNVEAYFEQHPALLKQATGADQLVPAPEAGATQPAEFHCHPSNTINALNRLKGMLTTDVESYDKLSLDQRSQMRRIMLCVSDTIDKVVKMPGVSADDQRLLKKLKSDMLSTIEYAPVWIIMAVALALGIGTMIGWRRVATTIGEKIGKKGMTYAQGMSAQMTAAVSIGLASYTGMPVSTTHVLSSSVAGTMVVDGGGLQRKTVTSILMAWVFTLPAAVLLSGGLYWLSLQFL

For “MgtS-SPA (from UniProt A5A616 1-31) (natural protein)”, the stoichiometry N (MgtS-SPA per PitA) was 1.
